The RNAGym collection of RNA variant scans (doi:10.7554/elife.80360)

B1: CPEB3 Ribozyme (parent)
chain: GGGGGCCACAGCAGAAGCGUUCACGUCGCGGCCCCUGUCAGAUUCUGGUGAAUCUGCGAAUUCUGCUGU

Variants of: B1
Experiment: self-cleavage, relative activity (ratio to wild type); higher = more cleavage; co-transcriptional

Variant | self-cleavage
G37U C66G | 0.201
G37U C66A | 0.267
U36G A42G | 0.225
G37A C54U | 0.417
G37A C54A | 0.235
G37A U69C | 0.498
U36C U62G | 0.581
U36C U62A | 0.654
U36C G37C | 0.237
U36C G37U | 0.287
U36C U46A | 0.922
U36C U46C | 0.987
G37C A60C | 0.236
G37C A60U | 0.306
U36G G65A | 0.207
U36G G65C | 0.25
G37C G41U | 0.201
G37A U46A | 0.375
G37A U46C | 0.338
G37A U46G | 0.281
G37A U38C | 0.34

Variant | self-cleavage
G37A U38A | 0.291
G37A U38G | 0.251
G37C U69G | 0.375
G37A G50C | 0.215
G37A G50U | 0.28
U36C A60G | 0.636
U36C A60C | 0.268
U36C A60U | 0.376
U36G G58C | 0.277
U36G G58A | 0.24
U36C U49C | 0.863
U36C U49A | 0.923
U36C U49G | 0.848
U38A A52G | 0.89
U38A A52U | 0.856
U36C U61A | 0.557
U36C U61C | 0.524
U38A C45G | 0.902
G37U A52U | 0.317
G37U A52G | 0.282
G37U U46G | 0.263

Variant | self-cleavage
G37U U46A | 0.416
G37U U46C | 0.292
G37C U62G | 0.157
G37C U62A | 0.212
G37C C39U | 0.268
G37C C39A | 0.215
G37C C39G | 0.167
U36G A59C | 0.182
U36G A59G | 0.238
U36G A59U | 0.189
U36G G48C | 0.266
U36G G48A | 0.236
G37C G56A | 0.205
G37C G56U | 0.237
G37A G65U | 0.325
G37A G65C | 0.258
G37A G65A | 0.252
G37C U38C | 0.201
G37C U38A | 0.246
G37C C66A | 0.222
G37C C66U | 0.246

Variant | self-cleavage
G37C C66G | 0.177
U38A C63A | 0.663
G37C G50A | 0.257
G37C G50U | 0.188
G37C G50C | 0.265
U36C U43C | 0.856
U36C U43A | 0.787
G37C C57G | 0.189
G37C C57U | 0.192
G37C C57A | 0.242
U36C U53A | 0.767
U36C U53G | 0.544
U36C U53C | 0.806
G37U C63A | 0.239
G37U C63G | 0.312
G37U C63U | 0.271
G37C U46C | 0.174
U36G U46C | 0.21
G37C | 0.241
G37A | 0.32
